In patent US12692310B2, “ASIC1 channel antagonist antibody” (ShanghaiTech University, priority 2019, dated 2026) one finds binding result, Kd and Response data, which are given here for 4 molecules.

For one test, the target named is T1, hASIC1a-eYFP (human, UniProt P78348 1-528).
T1 construct: whole, on cells; On CHO-K1 cells, stably (6H7) or transiently transfected; also called full-length hASIC1a (1-528 amino acids) fused with eYFP; CHO-K1/hASIC1a cells; not shown: C-terminal eYFP fusion
T1 sequence (looked up): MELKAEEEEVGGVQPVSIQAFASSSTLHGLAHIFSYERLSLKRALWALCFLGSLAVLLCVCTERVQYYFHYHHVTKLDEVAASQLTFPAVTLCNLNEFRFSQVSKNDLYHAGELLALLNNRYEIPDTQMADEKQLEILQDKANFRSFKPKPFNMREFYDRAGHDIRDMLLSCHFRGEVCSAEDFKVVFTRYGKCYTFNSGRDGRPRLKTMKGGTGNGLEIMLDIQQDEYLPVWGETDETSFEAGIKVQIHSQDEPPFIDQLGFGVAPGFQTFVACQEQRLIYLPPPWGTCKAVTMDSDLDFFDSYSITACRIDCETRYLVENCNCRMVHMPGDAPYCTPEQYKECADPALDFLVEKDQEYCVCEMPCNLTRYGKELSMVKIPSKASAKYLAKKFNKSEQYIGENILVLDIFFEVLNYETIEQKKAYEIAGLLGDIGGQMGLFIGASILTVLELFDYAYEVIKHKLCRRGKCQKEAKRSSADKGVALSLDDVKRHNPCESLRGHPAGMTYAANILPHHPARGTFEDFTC
As to the kind of experiment: immunocytochemistry, confocal microscopy, CHO-K1 cells expressing hASIC1a-eYFP.

The target in test [1] is truncated hASIC1a (amino acids 13-464) (human) (UniProt P78348). As to the kind of experiment: Octet, scFv format, ΔhASIC1a nanodiscs. Background: In BLI a coated tip is dipped into the sample, and binding shifts an interference pattern.
Test [2] has the same target. As to the kind of experiment: Octet, scFv format at 500 nM, ΔhASIC1a nanodiscs.

B1: ASC03 (scFv, V domains shown)
VH: QVQLVESGAEVKKPGSSVKVSCKASGGNFRKYSISWVRQAPGQGLEWMGWISAYNGNTNYAQKLQGRVTMTTDTSTSTAYMELRSLRSDDTAVYYCARDFDPYYDAFDIWGQGTTVTVSS
VL: QSALTQPASVSGSPGQSITISCTGTSSDVGAYNYVSWYQQHPGKAPKLMIYDVSNRLSGVSNRFSGSKSGNRASLTISGLQAEDEADYYCSSYRSGNSLAFGGGTKLTVLG
notes: also called ASC03 scFv; ASC03 (scFv format)
Turning to B1, the binding result with hASIC1a-eYFP is “binds”. The molecule further had a Kd in test [1] of 259 nM. This molecule also had a Response in test [2] of 0.269.

B2: ASC04 (scFv, V domains shown)
VH: QVQLVQSGAEVKKPGSSVKVSCKASGGTFSTYAINWVRQAPGQGLEWMGWMNPNSGNTGYAQKFQGRVTMTRNTSISTAYMELSSLRSEDTAVYYCARYSYGMDVWGQGTTVTVSS
VL: QAVLTQPSSLSASPGASVSLTCTLRSGINVGAYRIYWYQQKPGSPPQFLLRYKSDSDKQQGSGVPSRFSGSRDASANAGILLISGLRSEDEADYYCAIWHSSAWVFGGGTKLTVLG
notes: also called ASC04 scFv; ASC04 (scFv format)
For B2, in the test with hASIC1a-eYFP, the binding result is reported as “binds”. The molecule further yielded a Kd in test [1] of 20.8 nM. The same molecule came in with a Response in test [2] of 0.995.

B3: ASC02 (scFv, V domains shown)
VH: QVQLVQSGAEVKKPGASMKVSCTTSGYTVTGYYIHWLRQAPGQGFEWMGWINPNLGVTNYAQKFQGRVSMTRDPSIKTAYLELSGLRSDDTAMYYCARASTGGIFYDYWGQGTLVTVSS
VL: NFMLTQPHSMSESPGKTVTISCTRSSGNIASNYVQWYQQRPGSSPTTVIYDDNQRPSGVPDRFSGSIDSISNSASLTISGLKTEDEADYYCQSYDSSSVIFGGGTKLTVLG
notes: also called ASC02 scFv; ASC02 (scFv format)
On to B3, for which the binding result in the test with hASIC1a-eYFP is recorded as “binds”. Further, the Kd in test [1] came to 262 nM. In addition, the Response in test [2] was 0.289.

B4: ASC05 (scFv, V domains shown)
VH: QVQLVESGAEVKKPGASVRVSCKASGYSFTNYYMHWVRQAPGQGLEWMGIISPSGRSTSFAQKFQGRVTMTRDTSTSTVYMHLSSLRSDDTAVYYCARGAWSTDAFDIWGQGTTVTVSS
VL: QSALTQPASVSGSPGQSITISCTGTSSDVGSYNLVSWYQQHPGKAPKLMIYEGSKRPSGVSNRFSGSKSGNTASLTISGLQAEDEAEYHCSSFTGKGYVFGTGTKLTVLG
notes: also called ASC05 scFv; ASC05 (scFv format)
B4: the binding result with hASIC1a-eYFP is given as “binds”. The molecule also displayed a Kd in test [1] of 137 nM. Besides, the Response in test [2] was 0.502.

By Kd is commonly meant the free concentration of one partner at which half of the binding sites on the other are occupied at equilibrium, for simple one-to-one binding.
